Data from the supplement of paper PMC10567573.

B1: CHIT1 (parent)
chain: CSWKGATKQRIQDQKVPYIFRDNQ
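Further: lentivirally expressed fusions sorted by FACS into six bins by GFP to DsRed ratio, PSI derived from sequencing read proportions per bin multiplied by bin number.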

Variants of: B1
Test: protein stability index of a GFP-peptide fusion (GPS, HEK-293T) (PSI 1-6); higher = more stable
Conditions: c terminus: a fixed tail appended
For CSWKGATKQRIQDQKVPYIFDDNQ [R21D], the protein stability index was 3.49.
With CSWKGATKQRIQDQKVPYIFGDNQ [R21G] the protein stability index was 2.98.
CSWKGATKQRIQDQKVPYIFCDNQ [R21C] showed a protein stability index of 2.11.
In the case of CSWKGATKQRIQDQKVPYIFEDNQ [R21E], the protein stability index is reported as 3.68.
For CSWKGATKQRIQDQKVPYIFKDNQ [R21K], the protein stability index was 2.83.
For CSWKGATKQRIQDQKVPYIFIDNQ [R21I], the protein stability index was 2.18.
For CSWKGATKQRIQDQKVPYIFHDNQ [R21H], the protein stability index was 2.38.
CSWKGATKQRIQDQKVPYIFLDNQ [R21L] gave a protein stability index of 2.9.
CSWKGATKQRIQDQKVPYIFADNQ [R21A] gave a protein stability index of 3.06.
CSWKGATKQRIQDQKVPYIFFDNQ [R21F] gave a protein stability index of 2.47.
Work on CSWKGATKQRIQDQKPPYIFRDNQ [V16P] yielded a protein stability index of 3.31.
In the case of CSWKGATKQRIQDQKLPYIFRDNQ [V16L], the protein stability index is reported as 2.55.
Work on CSWKGATKQRIQDQKIPYIFRDNQ [V16I] yielded a protein stability index of 2.5.
Work on CSWKGATKQRIQDQKTPYIFRDNQ [V16T] yielded a protein stability index of 2.37.
With CSWKGATKQRIQDQKKPYIFRDNQ [V16K] the protein stability index was 3.11.
In the case of CSWKGATKQRIQDQKDPYIFRDNQ [V16D], the protein stability index is reported as 2.86.
For CSWKGATKQRIQDQKQPYIFRDNQ [V16Q], the protein stability index was 3.07.
In the case of CSWKGATKQRIQDQKMPYIFRDNQ [V16M], the protein stability index is reported as 2.28.
CSWKGATKQRIQDQKWPYIFRDNQ [V16W] gave a protein stability index of 2.04.
Variant CSWKGATKQRIQDQKRPYIFRDNQ [V16R] has a protein stability index of 2.31.
Variant CSWKGATKQRIQDQKGPYIFRDNQ [V16G] has a protein stability index of 2.73.
CSWKGATKQRIQDQKNPYIFRDNQ [V16N] gave a protein stability index of 2.82.
Variant CSWKGATKQRIQDQKSPYIFRDNQ [V16S] has a protein stability index of 2.11.
In the case of CSWKGATKQRIQDQKYPYIFRDNQ [V16Y], the protein stability index is reported as 1.95.
In the case of CSWKGATKQRIQDQKFPYIFRDNQ [V16F], the protein stability index is reported as 2.32.
Work on CSWKGATKQRIQDQKEPYIFRDNQ [V16E] yielded a protein stability index of 2.85.
Work on CSWKGATKQRIQDQKHPYIFRDNQ [V16H] yielded a protein stability index of 2.27.
Work on CSWKGATKQRIQDQKVPYLFRDNQ [I19L] yielded a protein stability index of 2.3.
With CSWKGATKQRIQDQKVPYCFRDNQ [I19C] the protein stability index was 2.35.
With CSWKGATKQRIQDQKVPYEFRDNQ [I19E] the protein stability index was 3.31.
In the case of CSWKGATKQRIQDQKVPYNFRDNQ [I19N], the protein stability index is reported as 3.17.
CSWKGATKQRIQDQKVPYWFRDNQ [I19W] gave a protein stability index of 2.06.
Work on CSWKGATKQRIQDQKVPYFFRDNQ [I19F] yielded a protein stability index of 2.08.
With CSWKGATKQRIQDQKVPYDFRDNQ [I19D] the protein stability index was 3.88.
CSWKGATKQRIQDQKVPYYFRDNQ [I19Y] gave a protein stability index of 1.95.
With CSWKGATKQRIQDQKVPYVFRDNQ [I19V] the protein stability index was 2.88.
In the case of CSWKGATKQRIQDQKVPYAFRDNQ [I19A], the protein stability index is reported as 3.19.
Work on CSWKGATKQRIQDQKVPYRFRDNQ [I19R] yielded a protein stability index of 3.28.
For CSWKGATKQRIQDQKVPYKFRDNQ [I19K], the protein stability index was 3.67.
Variant CSWKGATKQRIQDQKVPYMFRDNQ [I19M] has a protein stability index of 3.54.
Work on CSWKGATKQRIQDQKVPYPFRDNQ [I19P] yielded a protein stability index of 1.87.
CSWKGATKQRIQDQKVPYTFRDNQ [I19T] gave a protein stability index of 2.77.
Variant CSWKGATKQRIQDQKVPYHFRDNQ [I19H] has a protein stability index of 3.02.
CSWKGATKQRIQDQKVLYIFRDNQ [P17L] gave a protein stability index of 1.33.
CSWKGATKQRIQDQKVYYIFRDNQ [P17Y] showed a protein stability index of 1.75.
In the case of CSWKGATKQRIQDQKVAYIFRDNQ [P17A], the protein stability index is reported as 2.64.
Variant CSWKGATKQRIQDQKVKYIFRDNQ [P17K] has a protein stability index of 2.8.
CSWKGATKQRIQDQKVDYIFRDNQ [P17D] showed a protein stability index of 3.36.
In the case of CSWKGATKQRIQDQKVFYIFRDNQ [P17F], the protein stability index is reported as 1.54.
In the case of CSWKGATKQRIQDQKVEYIFRDNQ [P17E], the protein stability index is reported as 2.3.
Work on CSWKGATKQRIQDQKVIYIFRDNQ [P17I] yielded a protein stability index of 1.61.
CSWKGATKQRIQDQKVCYIFRDNQ [P17C] gave a protein stability index of 2.75.
Work on CSWKGATKQRIQDQKVHYIFRDNQ [P17H] yielded a protein stability index of 2.4.
Work on CSWKGATKQRIQDQKVGYIFRDNQ [P17G] yielded a protein stability index of 2.45.
Variant CSWKGATKQRIQDQKVSYIFRDNQ [P17S] has a protein stability index of 1.81.
In the case of CSWKGATKQRIQDQKVWYIFRDNQ [P17W], the protein stability index is reported as 2.04.
Variant CSWKGATKQRIQDQKVRYIFRDNQ [P17R] has a protein stability index of 2.67.
Variant CSWKGATKQRIQDQKVNYIFRDNQ [P17N] has a protein stability index of 2.51.
For CSWKGATKQRIQDQKVQYIFRDNQ [P17Q], the protein stability index was 1.98.
For CSWKGATKQRIQDQKVMYIFRDNQ [P17M], the protein stability index was 1.37.
For CSWKGATKQRIQDQKVTYIFRDNQ [P17T], the protein stability index was 2.57.
With CSWKGATKQRIQDQKVPFIFRDNQ [Y18F] the protein stability index was 2.12.
Work on CSWKGATKQRIQDQKVPNIFRDNQ [Y18N] yielded a protein stability index of 3.4.
Variant CSWKGATKQRIQDQKVPVIFRDNQ [Y18V] has a protein stability index of 3.46.
Work on CSWKGATKQRIQDQKVPPIFRDNQ [Y18P] yielded a protein stability index of 2.58.
For CSWKGATKQRIQDQKVPDIFRDNQ [Y18D], the protein stability index was 3.5.
Work on CSWKGATKQRIQDQKVPAIFRDNQ [Y18A] yielded a protein stability index of 2.88.
CSWKGATKQRIQDQKVPMIFRDNQ [Y18M] gave a protein stability index of 2.41.
CSWKGATKQRIQDQKVPRIFRDNQ [Y18R] showed a protein stability index of 3.08.
Work on CSWKGATKQRIQDQKVPCIFRDNQ [Y18C] yielded a protein stability index of 2.7.
CSWKGATKQRIQDQKVPWIFRDNQ [Y18W] gave a protein stability index of 2.19.
CSWKGATKQRIQDQKVPGIFRDNQ [Y18G] gave a protein stability index of 4.15.
Variant CSWKGATKQRIQDQKVPHIFRDNQ [Y18H] has a protein stability index of 2.74.
For CSWKGATKQRIQDQKVPKIFRDNQ [Y18K], the protein stability index was 3.34.
CSWKGATKQRIQDQKVPIIFRDNQ [Y18I] showed a protein stability index of 2.23.
CSWKGATKQRIQDQKVPTIFRDNQ [Y18T] gave a protein stability index of 3.02.
For CSWKGATKQRIQDQKVPYIHRDNQ [F20H], the protein stability index was 3.29.
Variant CSWKGATKQRIQDQKVPYICRDNQ [F20C] has a protein stability index of 3.11.
CSWKGATKQRIQDQKVPYIYRDNQ [F20Y] gave a protein stability index of 2.74.
With CSWKGATKQRIQDQKVPYIRRDNQ [F20R] the protein stability index was 3.08.
With CSWKGATKQRIQDQKVPYIGRDNQ [F20G] the protein stability index was 2.87.
With CSWKGATKQRIQDQKVPYIPRDNQ [F20P] the protein stability index was 3.13.
For CSWKGATKQRIQDQKVPYIQRDNQ [F20Q], the protein stability index was 3.61.
For CSWKGATKQRIQDQKVPYITRDNQ [F20T], the protein stability index was 3.71.
Work on CSWKGATKQRIQDQKVPYIERDNQ [F20E] yielded a protein stability index of 3.99.
In the case of CSWKGATKQRIQDQKVPYIKRDNQ [F20K], the protein stability index is reported as 3.17.
For CSWKGATKQRIQDQKVPYIMRDNQ [F20M], the protein stability index was 3.53.
Variant CSWKGATKQRIQDQKVPYIVRDNQ [F20V] has a protein stability index of 3.09.
CSWKGATKQRIQDQKVPYIARDNQ [F20A] gave a protein stability index of 3.11.
Variant CSWKGATKQRIQDQKVPYILRDNQ [F20L] has a protein stability index of 3.47.
Variant CSWKGATKQRIQDQKVPYINRDNQ [F20N] has a protein stability index of 2.93.
In the case of CSWKGATKQRIQDQKVPYIDRDNQ [F20D], the protein stability index is reported as 3.16.
In the case of CSWKGATKQRIQDQKVPYIIRDNQ [F20I], the protein stability index is reported as 2.
CSWKGATKQRIQDQKVPYISRDNQ [F20S] gave a protein stability index of 3.13.
